Results taken from the DeepSol protein solubility set.

experiment: soluble on expression in E. coli; label from the status in PepcDB or PDB records

Soluble on expression in E. coli, soluble:
MLEEPFFPYQSLASDLLAFLPEDSTDGSHDLSHIHRVWMNVRRLQDKEGGDLEALLAATLLHDCVAVEKNSPLRSQASTLSANKAASILQRMGWPAPRIELVAHAVQAHSFSAGVEPLTLEARILQDSDRLDAIGMIGVARCFYIAGRMGSALYDITNPTAIGRPYQDKRFTIEHFHTKLLSLASGFQTVEGARLAAVRHARLKDFLDGFMEEIGAPDLEHHHHHH
MLERILSRENLIQALERVEKNKGSYGVDEMDVKSLRLHLHENWTSIRNEIIEGSYFPKPVRRVEIPKPNGGVRKLGIPTVMDRFLQQAIAQILTQLYDPTFSERSFGFRPHRRGHNAVRQAKQWMKEGYRWVVDIDLEKFFDKVNHDRLMRKLSSRIQDPRVLQLIRRYLQTGVMERGLVSPNTEGTPQGGPLSPLLSNIVLDELDNELEKRGLKFVRYADDCNIYVRSKRAGLRIMESVTSFIENRLKLKVNREKSAVDRPWNRKFLGFSFTRGKDPKMRVSKESVKRLKQRIRELTSRRHSMKMSDRLRRLNRYLTGWLGYYQVVDTPSILAQIDAWIRRRLRMIRWKEWKTTSARQKNLVRLGIKKAKAWQWANSRKGYWRVAHSPIMDYALNSEYWKGQGLMSLAERYQTRRWTLEHHHHHH
MLESSLTFLLLPVGFPGEVLVTLARRAREAMPVPSLWLASTDPLEPPIEAYSWERMQFDAEKVNEHIHSVLYDYVREGIRIIGVVDADGYIPGFNFVFGLASTALGVATVYTRRLKTGGNGLYTERLLKEVLHEAGHLLGLDHCSNRECVMSFSRSVEEVDRKAPLFCSSCKAKLVLKYGSRGQLEHHHHHH
MLILGIDTSTKICTCSIFDSENGVIAETSLSVKKNHSNIVMPIIDNLFKISDLTINDIDKIAVAIGPGSFTGVRIALGIAKGLAMALNKPLIAINELDILEAIASGNENEIIPLIDARKERVYYKYQNKYVDDYLINLTSNFDKNKKYIFVGDGAINYKNILKDNLGENAIILPMYNSFPRASILCELALNKEEANIYTLEPEYISKSRAEKHFLEHHHHHH
MLILSTEKEPNFEYEEITRSFLSNMLAFTRGHFTGDISHFSPIVLAEMEKDPNWLEEAAGGMQGVIVQSLLEDENFSSVEQLKGELARLIRLYFALAKDNLTENQESLYVDLFDKFTFLLLCSDEFIMYLDSQPKF
MLKKIREEFGCIFARDPAAQSFFEILTVYPGVHAVLIHRFSHWLWNHGLHWPARVLSYLARWATGIEIHPGATLGRRLFIDHGMGVVIGETAVIGDDCTLYHGVTLGGTSWQKGKRHPTLGNGVVVGAGAKVLGPITVGDGARIGSNSVVLRTVPAGATVVGIPGHIINPDRRAQEAQRLAIASRLGFDAYGMTPDMPDPVAHAINHMLDHIQALDQQVAKLKEVLRERGIDLEEAPLPDLDDCQLDPGEPQVTVNSSRTGLEHHHHHH

Soluble on expression in E. coli, not soluble:
MLDVPVLLAAVSPDSPCGDDLEYDAAFLELERIAQGQPERQMGDAVLPAEPPEWPRVRALASELFGRSKDLRVANLLLQSNVALDGLDGLADGLLLVRELLGQYWDGVYPLLDADDDNDPTFRINALTGLVAEPLLQLVWAIPLVRSRAFGPVNLRAALNAAGLQRFASETLSPEQIAGAFADADADALAATRRALDGAQEHALAIESGVAERVGSAQGLDLGPLRQLLRQALQVFDLYGPQGAGESLAPGAEAVADEQVGAAPVAAVAAPAPRASGEIANREDVLRQLDRLLEYYVRHEPSSPVPVLLKRAKTLVTADFAEIVRNLIPDGISQFETLRGPESE
MLEEELARKIERYFSIEEEALKKIRISPAEGSFLRKIAEDNMQMILSYYSDAKHFYAKGDLINAFAALNYSYGWIDAGVRLGIFDGAGDHRLFTLYE
MLEKHWSKSLVDSFESSKNKPSNLNGKKYILSMFPYPSGRLHIGHMRVYTISDATARYYRLNGYEVIHPIGWDSFGLPAENAARDKGVDPREWTINNIESMKQQLLKTKILFDWEKEISTCEPEFFRWTQWIFCKLFEYGLVKRTSSEVNWDPIDKTVLAAEQIDNDGKSWRSGAKAEKKKLSQWMIETPKYAKRLQEGLRKMSEQWGEVADIQANWIGKCDVYRFMLPVMKDGSNDEIIDLRIKDIFEISNAEFLVLKQSHSLADKDATQFPYKLPFQVLNGVTGRQIPVIVVEDTYQPDVTSFLNSRIGNFQKDKILVEKFAIAEPKHKRKLTKNDIQEMASFGGYGGYETSRTLTDWVVSRQRGWGTPIPMIQTKDGKRVAVQLNKLPVLGSDRGQEVDKERFGESGVFDTDTLDTFFDSAWYYLRYLDNKNKSELISKGAMKNMPVDVYVGGIEHAAVHMFFARFVAYFLKDINVIQTAEPFTDLIPQGIVRGKTFIEKETGKYLGSEDVQQSGDKLTLKNDSSVEVDAVYEKMSKSKNNGVDLAAILDSEGVDMTRLRLLEAAAPRAPINWGETDLKGIKKLLDRIAAINSQIVDARDNGKPIELKKEIDGSIKETYNFFVRNVGMCLEVLHLHNTALMRIQGFTNALKKVDPIYLAHSPEGQRAVKSLIIMLQVFCPHVASEMWSALANDGSLVSDQKWPEVDKDADIEFLLMIDGVSGGRPSLDRRIIEEMSMDQLWERATFYEHADILRMMKEDGMKLKNSSYISRKGFHVTLSCSLEGDKEENRKKIGKILDRIQAEKRKLEIGKKGGKRKKEKKIVNK
MLEVSVMTIRRDLHQEDEPLPLTLLGGYIVMVNKPAPSMPVIHDVPKNHRDDLPIAILAAGMVNENDLIFFDNGQEIPLVISMIPDAITFTGICYSHRVFVALNEKPNVTAILCGGTYRARSDAFYDASNSSPLDSLNPRKIFISASGVHNHFGVSWFNPEDLATKRKVMNRGLRKILLARHALFDEVASASLAPISAFDVLISDRPLPADYVTHCQNGSVKIITPDSEDELEHHHHHH
MLICNDKSNPKTLLEEIMALRPWRKGPFEISQIKIDSEWDSSIKWDLVKNATPLKDKVVADVGCNNGYYLFKMLEHGPKSLVGFDPGVLVKKQFEFLAPFFDKEKKIIYESLGVEDLHEKYPNAFDVIFCLGVLYHRKSPLEALKALYHALKIKGELVLDTLIIDSPLDIALCPKKTYAKMKNVYFIPSVSALKGWCERVGFENFEILSVLKTTPKEQRKTDFILGQSLEDFLDKTDPSKTLEGYDAPLRGYFKMLKPSKR
MLIERIYDEDLAQASYFIGCQAHNTAVVVDPRRDIAVYLDMAKKNGMEIVGVTETHIHADYLSGTRELAAATNATMYVSGEGGADWQYEFDAERICDGSEIRLGNLVLTAVHTPGHTPEHLSFLLKDGAFADEPGFMLTGDFVFAGDLGRPDLLDEAAGGVDTRFEGARQMFKSLKEKFLTLPDHIQIFPGHGSGSACGKALGSVPSTTLGYERQFAWWGKYLEADDEQGFIDELLEGQPDAPAYFGRMKRQNRQGPAIMGARELLPQLEASDLHDVIVVDTRSADEVHQGTVAGAVNIPAGNSMAKFGSWTVDPEKDSRALVLLAASQIGAMEMWDHMVRVGIDNVAGFITNFDGVDLVAPQTVSPDQLDELEYDLLLDVRNRSEVEEGYIPGALHINGASVLWNLEKLPRDGKIVSYCKSGTRSSIAASTLRNAGFDVVELQGSYDNWVRHNAQLEHHHHHH
MLILDYTKLKVTFMTMHHPNLQQHDRPQAISRSYLDIRHVVKQFGSFTALKEISLSIEKGEFVCFLGPSGCGKTTLLRAIAGLDLPTSGTIHQNQQAITFLPPEQRDFGIVFQSYALFPNLTVEENIAIGLRNQGMSVRDALEKVEQWLEMIGLATSAQKYPSQLSGGQQQRVALARALALSPGLLLLDEPLSALDAKVRTHLREEICQLQRKLGITTIMVTHDQEEALTMADRIVVMNHGVIEQVGTPQEIYQKPASRFVAEFVGTMNFIPVSMASSQQLRIAESLIALPKIENYTPCQGEQFDLAVRPENLELVTRYNEAIPVVIRHLEFLGAFYRVECVFQGERLAPPVYVDLPITQVQTMNLKAGDVRYLALRAGQLRAYRRKVMSTTPAATASCAYAA
MLIRPNKVQKVGNLFMDTVHEEEIRLLNQLYDTLMKKDVEKADQLMDELLVDLEDHFTTEEELMREFEFFAYPMHKAEHDTMRKRFKEVYDKWKKEKNPEEVVRFLKEEFVPWLKSHVARWDSTTAQQLGD
MLKCAVDEAAGGRAQAFVSSGDNIGGSPFQSSILGDEPTLEALNQMGLDYSAVGNHEFDKGYADLSSRVADLADFDYLGANVEGENPDLAPYGISHLDGVKVAFVGTVSQETPMLVNSEGIEGITFTDPLEATNRVADELVGSGAADVVVALYHEGITGTEAWSENIDVVFAGHTH
